B1: HRI-ΔN-ΔpCC (Δ1-143, Δ620-630), untreated (phosphorylated as purified) (domain or fragment, human, UniProt Q9BQI3 144-619, looked up)
chain: SRIQKIRSREVALEAQTSRYLNEFEELAILGKGGYGRVYKVRNKLDGQYYAIKKILIKGATKTVCMKVLREVKVLAGLQHPNIVGYHTAWIEHVHVIQPRADRAAIELPSLEVLSDQEEDREQCGVKNDESSSSSIIFAEPTPEKEKRFGESDTENQNNKSVKYTTNLVIRESGELESTLELQENGLAGLSASSIVEQQLPLRRNSHLEESFTSTEESSEENVNFLGQTEAQYHLMLHIQMQLCELSLWDWIVERNKRGREYVDESACPYVMANVATKIFQELVEGVFYIHNMGIVHRDLKPRNIFLHGPDQQVKIGDFGLACTDILQKNTDWTNRNGKRTPTHTSRVGTCLYASPEQLEGSEYDAKSDMYSLGVVLLELFQPFGTEMERAEVLTGLRTGQLPESLRKRCPVQAKYIQHLTRRNSSQRPSAIQLLQSELFQNSGNVNLTLQMKIIEQEKEIAELKKQLNLLSQDKG
modifications: autophosphorylated as purified from E. coli (sites not given)
notes: The limits 144-619 follow from the printed deletions Δ1-143 and Δ620-630; also called His-HRI-ΔN-ΔpCC; untreated HRI-ΔN-ΔpCC
B2: HRI-ΔN-ΔpCC (Δ1-143, Δ620-630), dephosphorylated with lambda phosphatase (domain or fragment, human, UniProt Q9BQI3 144-619, looked up)
chain: B1 chain
notes: Human HRI, UniProt Q9BQI3, residues 144-619 (Δ1-143, Δ620-630); phosphate groups removed with lambda phosphatase; The limits 144-619 follow from the printed deletions Δ1-143 and Δ620-630; also called dephosphorylated HRI-ΔN-ΔpCC; source: E. coli BL21-Rosetta(DE3), purified, incubated with lambda phosphatase, then Superdex 200

Experiments:
[1] = target: T1, heme-regulated inhibitor (HRI) (Homo sapiens, UniProt Q9BQI3); test: γ[…] ATP filter-paper kinase assay with eIF2α peptide; supported by DSF (~[…] °C shift) and DSC stabilization; type: biochemical
T1 construct: gene EIF2AK1; HRI-FL (full-length)
T1 sequence (Q9BQI3 whole entry): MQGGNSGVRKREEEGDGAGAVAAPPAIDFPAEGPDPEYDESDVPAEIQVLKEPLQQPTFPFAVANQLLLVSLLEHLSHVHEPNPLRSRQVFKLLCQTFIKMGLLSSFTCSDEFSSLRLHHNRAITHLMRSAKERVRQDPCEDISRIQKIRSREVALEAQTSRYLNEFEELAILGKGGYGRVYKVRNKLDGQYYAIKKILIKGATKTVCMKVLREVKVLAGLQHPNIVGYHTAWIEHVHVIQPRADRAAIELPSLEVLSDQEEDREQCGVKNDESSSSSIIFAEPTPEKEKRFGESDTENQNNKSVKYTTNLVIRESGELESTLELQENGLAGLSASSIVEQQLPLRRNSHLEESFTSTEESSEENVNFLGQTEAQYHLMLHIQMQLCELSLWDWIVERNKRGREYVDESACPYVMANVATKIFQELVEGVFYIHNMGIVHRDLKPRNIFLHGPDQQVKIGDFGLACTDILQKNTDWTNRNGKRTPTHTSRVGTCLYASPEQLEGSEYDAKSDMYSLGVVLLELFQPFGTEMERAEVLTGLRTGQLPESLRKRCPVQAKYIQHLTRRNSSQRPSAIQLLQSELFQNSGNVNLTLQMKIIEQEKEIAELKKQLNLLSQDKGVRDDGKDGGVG

[2] = target: the molecule itself; test: AUC; sedimentation velocity; samples at an absorbance of 0.5 at 280 nm, 20 °C, 42,000 rpm, c(s) distribution model in SEDFIT; self-association (oligomeric state from fit MW)

| Molecule | IC50 [1] [nM] | stoichiometry N [2] |
| --- | --- | --- |
| O=c1c(O)c(-c2ccc(O)c(O)c2)oc2cc(O)cc(O)c12 [quercetin] | 1520 |  |
| B1 |  | 2 |
| B2 |  | 2 |

Reference: publication PMC9520036, “The heme-regulated inhibitor kinase requires dimerization for heme-sensing activity” (The Journal of Biological Chemistry, 2022)
